Publication PMC3086013 (Biochemistry, 2010)

Molecular target: the molecule itself
Assay: velocity sedimentation on H2O- and D2O-sucrose gradients + SEC

Row | Protein | stoichiometry N
1 | seipin-myc13 (yeast seipin fused to 13 tandem copies of the myc epitope) (natural protein, S. cerevisiae, UniProt Q06058 1-285, looked up) MKINVSRPLQFLQWSSYIVVAFLIQLLIILPLSILIYHDFYLRLLPADSSNVVPLNTFNILNGVQFGTKFFQSIKSIPVGTDLPQTIDNGLSQLIPMRDNMEYKLDLNLQLYCQSKTDHLNLDNLLIDVYRGPGPLLGAPGGSNSKDEKIFHTSRPIVCLALTDSMSPQEIEQLGPSRLDVYDEEWLNTIRIEDKISLESSYETISVFLKTEIAQRNLIIHPESGIKFRMNFEQGLRNLMLRKRFLSYIIGISIFHCIICVLFFITGCTAFIFVRKGQEKSKKHS | 9.4 subunits/complex
2 | seipin-mCherry (yeast seipin tagged at its carboxy terminus with mCherry) (natural protein, S. cerevisiae, UniProt Q06058 1-285, looked up) MKINVSRPLQFLQWSSYIVVAFLIQLLIILPLSILIYHDFYLRLLPADSSNVVPLNTFNILNGVQFGTKFFQSIKSIPVGTDLPQTIDNGLSQLIPMRDNMEYKLDLNLQLYCQSKTDHLNLDNLLIDVYRGPGPLLGAPGGSNSKDEKIFHTSRPIVCLALTDSMSPQEIEQLGPSRLDVYDEEWLNTIRIEDKISLESSYETISVFLKTEIAQRNLIIHPESGIKFRMNFEQGLRNLMLRKRFLSYIIGISIFHCIICVLFFITGCTAFIFVRKGQEKSKKHS | 8.7 subunits/complex
